The source of these data is patent publication US20120041175A1 (ROCKEFELLER UNIVERISTY, published 2012).

Sequences and labels used below:
B1: Bif1 (endogenous, mouse tissue) (other, UniProt Q9JK48 1-365, looked up)
chain: MNIMDFNVKKLAADAGTFLSRAVQFTEEKLGQAEKTELDAHLENLLSKAECTKIWTEKIMKQTEVLLQPNPNARIEEFVYEKLDRKAPSRINNPELLGQYMIDAGTEFGPGTAYGNALIKCGETQKRIGTADRELIQTSALNFLTPLRNFIEGDYKTIAKERKLLQNKRLDLDAAKTRLKKAKAAETKSSSEQELRITQSEFDRQAEITRLLLEGISSTHAHHLRCLNDFVEAQMTYYAQCYQYMLDLQKQLGSFPSNYLSNNNQTSGTPVPYALSNAIGPSAQASTGSLVITCPSNLNDLKESSNNRKARVLYDYDAANSTELSLLADEVITVFSVVGMDSDWLMGERGNQKGKVPITYLELLN
B2: Beclin 1-EGFP (fusion of mouse Beclin 1 and EGFP at the C-terminus) (other)
chain: MEGSKASSSTMQVSFVCQRCSQPLKLDTSFKILDRVTIQELTAPLLTTAQAKPGETQEEEANSGEEPFIETRQDGVSRRFIPPARMMSTESANSFTLIGEASDGGTMENLSRRLKVTGDLFDIMSGQTDVDHPLCEECTDTLLDQLDTQLNVTENECQNYKRCLEILEQMNEDDSEQLQRELKELALEEERLIQELEDVEKNRKVVAENLEKVQAEAERLDQEEAQYQREYSEFKRQQLELDDELKSVENQVRYAQIQLDKLKKTNVFNATFHIWHSGQFGTINNFRLGRLPSVPVEWNEINAAWGQTVLLLHALANKMGLKFQRYRLVPYGNHSYLESLTDKSKELPLYCSGGLRFFWDNKFDHAMVAFLDCVQQFKEEVEKGETRFCLPYRMDVEKGKIEDTGGSGGSYSIKTQFNSEEQWTKALKFMLTNLKWGLAWVSSQFYNK
notes: Expressed from a BAC transgene in beclin 1-/-; also called Beclin 1-GFP; not shown: EGFP inserted at the C-terminus in place of the stop codon

Test [1] deals with B2. Description: anti-GFP affinity isolation of Beclin 1-EGFP from mouse tissues, mass spectrometry. As for the experimental part:
(§1) Rubicon contains an N-terminal RUN (for RPIP8, UNC-14 and NESCA) domain, a C-terminal cysteine-rich domain, and a CCD domain in the central of the protein sequence. (D and E) HEK 293T cells were transfected with either N-terminal FLAG-tagged […] or C-terminal EGFP-tagged (E) ATG14L or Rubicon. Immunoprecipitation was performed with anti-FLAG (D) or anti-GFP antibody (E). The endogenous Beclin 1 co-immunoprecipitated were detected by Western blot analysis using anti-Beclin 1 antibody. WCL represents whole cell lysate, and IP represents immunoprecipitated.
(§2) Affinity purification of Beclin 1 interacting proteins and mass spectrometric identification of these proteins were carried out as described in Wang et al. (2006), with slight modification. In brief, tissue extracts were obtained from both beclin 1^{+/-} and beclin 1^{-/-}; beclin 1-GFP/+ mice at 4 month of age by homogenizing 2 brains or 1 liver with a motor-driven homogenizer (speed 2.5, 12 strokes) in 4 ml buffer containing 0.32 M sucrose, 1 mM NaHCO₃, 20 mM HEPEs/pH 7.4, 1 mM MgCl₂, 0.25 mM CaCl₂, EDTA-free protease inhibitor cocktail, 200 μg/mL PMSF, pepstatin 4 μg/mL, and DNase I. The tissue extracts were centrifuged at 1,400 g for 10 minutes and the pellets were homogenized again in 4 ml buffer for 8 strokes and centrifuged again. Supernatants from the two homogenization steps were pooled, centrifuged at 750 g for 10 minutes. […]

Test [2] has as its target nPIST (endogenous, mouse tissue) (mouse, UniProt Q8BH60 2-463). The test is described as above. As to the method: as §1, §2

Take B1: the binding result in test [1] was “no binding”.

As for B2, the binding result in test [2] is recorded as “no binding”.
